# Test results reported in IntAct's records for PubMed 18449195.
# B1: SOSS complex subunit B1 (Homo sapiens), Q9BQ15 (parent)
# chain: MTTETFVKDIKPGLKNLNLIFIVLETGRVTKTKDGHEVRTCKVADKTGSINISVWDDVGNLIQPGDIIRLTKGYASVFKGCLTLYTGRGGDLQKIGEFCMVYSEVPNFSEPNPEYSTQQAPNKAVQNDSNPSASQPTTGPSAASPASENQNGNGLSAPPGPGGGPHPPHTPSHPPSTRITRSQPNHTPAGPPGPSSNPVSNGKETRRSSKR
# Variants of: B1
# Settings: with atm_human ATM
row,effect of a mutation on the interaction,Variant
1,disrupting interaction,T117A
